Source: patent publication US20200317791A1 (published 2020)

Biological target: T1, peptide on HLA-C*06:02 (human)
T1 peptide: TRATKMQVI
Experiment: activation reporter or marker

B1: TCR-TRAT (TCR, V domains shown)
Valpha: GEDVEQSLFLSVREGDSSVINCTYTDSSSTYLYWYKQEPGAGLQLLTYIFSNMDMKQDQRLTVLLNKKDKHLSLRIADTQTGDSAIYFCAESSNLSGNTPLVFGKGTRLSVIA
Vbeta: AAGVIQSPRHLIKEKRETATLKCYPIPRHDTVYWYQQGPGQDPQFLISFYEKMQSDKGSIPDRFSAQQFSDYHSELNMSSLELGDSALYFCASGLAGITGELFFGEGSRLTVL
Q: Does B1 bind?
A: Result: recognises
